Results reported in patent US20250002574A1 (SUNSHINE LAKE PHARMA, published 2025).
Residue numbers refer to the chain shown, from its start.

T1: IL-11 (UniProt P20809 22-199, limits assumed)
T1 construct: also called IL-11 protein; IL-11 antigen
T1 sequence (looked up): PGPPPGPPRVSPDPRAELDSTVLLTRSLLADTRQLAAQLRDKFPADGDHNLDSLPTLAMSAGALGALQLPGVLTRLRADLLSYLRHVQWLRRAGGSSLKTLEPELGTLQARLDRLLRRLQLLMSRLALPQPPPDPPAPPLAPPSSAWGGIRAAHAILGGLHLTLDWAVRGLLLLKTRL

T2: recombinant human protein antigen hu-IL-11-His tag (human, UniProt P20809 22-199)
T2 construct: also called IL-11-His protein; not shown: His tag
T2 sequence (looked up): T1 sequence (looked up)

T3: IL-11 stably expressed on CHO cells (membrane-IL-11 CHO) (UniProt P20809 22-199)
T3 construct: whole, on cells
T3 sequence (looked up): T1 sequence (looked up)

B1: 5-20E11-1A2 (antibody, V domains shown)
VH: QVQLQQPGAELVRPGTSVKMSCKASGYTFTSYWMHWVKQRPGQGLEWIGDIYPGSDSTNYHEKFKSKATLTVDTSSSTAYMQLSSLTSEDSAVYYCALDSSGYGFAYWGQGTLVTVSA
VL: NIVMTQTPKFLLVSAGDRVTITRKASQSVSNDVVWYQQKPGQSPKLLMYYASYRYTGVPDRFTGSGYGTDFTFTISNVQAEDLAVYFCQQDYSSPFTFGSGTKLEIK
B2: 3-15D5-3A6 (antibody, human IgG1, kappa, V domains shown)
VH: QVTLKESGPGILQPSQTLSLTCSFSGFSLSSSGMSVGWIRQPSGKGLEWLAHIWWSDDKSYNPALKSRLTISKDTSNNQVFLKIASVVTADTATYYCAREGSLGYGLDYWGQGTTLTVSS
VL: DVLMTQTPLSLPVSLGDQASISCRSSQSIVHTDGNTYLEWYLQKPGQSPKLLIYKVSNRFSGVPDRFSGSGSGTDFTLKISRVEAEDLGVYYCFQGSHVPWTFGGGTKLEIKR
B3: 3-9E1-3A2 (antibody, human IgG1, kappa, V domains shown)
VH: QIQLVQSGPELKKPGETVNISCRASGDTFTNYAVNWVKQAPGKGLKWMGWIDTYTGDPTYADDLKGRFAFSLETSATTAYLQINNLKNEDTATYFCAGDTWFAYWGQGTLVTVSA
VL: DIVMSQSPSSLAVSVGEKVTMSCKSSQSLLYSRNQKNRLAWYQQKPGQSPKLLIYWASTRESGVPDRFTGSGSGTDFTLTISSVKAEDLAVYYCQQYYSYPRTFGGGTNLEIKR
B4: 3-7C9-1A6 (antibody, human IgG1, kappa, V domains shown)
VH: QVQLKQSGPGLVQPSQSLSITCTVSGFSLTNYGVHWVRQSPGKGLEWLGAIWRGGSTDYNAAFMSRLSITKDNSKSQVFFKMNSLQPDDTAIYYCAKNLYGPAAMDYWGQGTSVTVSS
VL: DIQMNQSPSSLSASLGDTITITCHANQNIYVWLSWYQQKPGNIPKLLIYEASNLHTGVPSRFSGSGSGTGFTLTISSLQPEDIATYYCQQGQSYPYTFGGGTKLEIKR
B5: 3-15D5-6A1 (antibody, human IgG1, kappa, V domains shown)
VH: EVKLLESGGGLVQPGGSLKLSCAASGFDFRRYWMSWVRQAPGKGLEWIGQINPDSSMINYTPSLKDKFIISRDNAKNTLYLQMSEVRSEDTALYYCATYGHHATDSWGQGTSVTVSS
VL: DIVLTQSPASLAVSLGQRATISCRASESVDSYGNSFMHWYQQKPGQPPKLLIYRASNLESGIPARFSGSGSRTDFTLTINPVEADDVATYYCQQSNEDPFTFGSGTKLEIKR
B6: 3-2B5-3D2 (antibody, human IgG1, kappa, V domains shown)
VH: QVQLKQSGPGLVLPSQSLSITCTVSGFSLTSYGVHWFRQSPGTGLEWLGVIWSGGITDYNATFIPRLSISKDNSKSQVFFKMNSLQADDTAIYYCARNFDGYYYSIDYWGQGTSVTVSS
VL: DIQMTQTTSSLSASLGDRVTISCRASQDISNSLNWYQQKPDGTVKLLIYYTSRLHSGVPSRFTGSGSGTDYSLTISNLEQEDIATYFCQQGNTLPLTFGAGTKLELKR
B7: MIL-11 mab-02 (antibody, IgG1, V domains shown)
VH: QVQLVQSGAEVKKPGASVKVSCKASDYTFTNYWLGWVRQAPGQGLEWMGHIYPGGGYTNYNEKFKGRVTMTRDTSTSTVYMELSSLRSEDTAVYYCARVSSGNDALDFWGQGTLVTVSS
VL: EIVLTQSPATLSLSPGERATLSCRASESVDEYGISFMNWFQQKPGQAPRLLIYSASNQGSGIPARFSGSGSGTDFTLTISSLEPEDFAVYFCQQSKELPWTFGGGTKLEIK
notes: also called 2E2 full-length antibody
B8: MIL-11 mab-03 (antibody, IgG1, V domains shown)
VH: B7 VH
VL: B7 VL with G59A
notes: also called 1F12 full-length antibody
B9: VH1+VL3 full-length humanized antibody (antibody, human IgG1, kappa, V domains shown)
VH: B7 VH with S100R
VL: EIVLTQSPATLSLSPGERATLSCRASESVDEYGISFMNWFQQKPGQAPRLLIYSASNQGSGIPARFSGSGSGTDFTLTISSLEPEDFAVYFCQQSKEVPWTFGGGTKLEIKR
notes: IgG form, IgG1 Fc; also called VH1+VL3 mAb; CPD-2
B10: VH1+VL2 full-length humanized antibody (antibody, human IgG1, kappa, V domains shown)
VH: B7 VH with S100R
VL: B9 VL with F40Y
notes: IgG form, IgG1 Fc
B11: VH1+VL4 full-length humanized antibody (antibody, human IgG1, kappa, V domains shown)
VH: B7 VH with S100R
VL: B9 VL with V89M
notes: IgG form, IgG1 Fc
B12: full-length chimeric antibody constructed by 5-20E11-5F2 (Example 15) (antibody, human IgG1, kappa, V domains shown)
VH: QVQLQQSGAELVRPGTSAKISCKASDYTFTNYWLGWLKQRPGHGLEWIGHIYPGGGYTNYNEKFKGKATLTADTSSSTAYMQLSSLTSEDSAVYFCARVRSGNDALDFWGQGTSVTVSS
VL: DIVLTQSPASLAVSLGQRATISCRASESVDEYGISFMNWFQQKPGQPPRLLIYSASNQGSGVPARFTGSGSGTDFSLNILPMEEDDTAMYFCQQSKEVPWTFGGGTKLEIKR
notes: also called CPD-1; VH+VL
B13: MIL-11 mab-01 (antibody, IgG1, V domains shown)
VH: B7 VH with F108L
VL: B7 VL with A55G, Q58E, Q93N, L98V
notes: also called 1E12 full-length antibody

Molecular target: T1, IL-11
Experiment: ELISA on IL-11, monoclonal hybridoma antibody

OD450 [OD450]	Binder
1.63	B1
1.69	B2
1.54	B3
1.6	B4
1.51	B5
1.61	B6

Molecular target: T1, IL-11
Experiment: BLI (Fortebio), antibody on AHC sensor, IL-11 as analyte
Method: (§1) The determination method consisted of the following steps: the humanized antibody was captured by an AHC sensor. […] Finally, the sensor was regenerated with 10 mM glycine (pH 1.7) buffer.

fold increase of affinity against the humanized antibody VH1+VL3 [fold]	Binder
10	B7
10	B8

Molecular target: T1, IL-11
Experiment: SPR Biacore T200, antibody captured, IL-11 6.25-400 nM
Method: The measure method included the following steps of capturing the full-length humanized antibody at a flow rate of 10 μL/min. […] The binding time was 180 s, and the dissociation time was 600 s. Finally, the chip was regenerated with 10 mM glycine buffer.

Kd [nM]	koff [s⁻¹]	kon [M⁻¹ s⁻¹]	Binder
9.03	0.000474	52600	B9
12	0.000597	49800	B10
10	0.000545	54300	B11
6.41	0.000433	67600	B12

Molecular target: T1, IL-11
Experiment: BLI (Fortebio), antibody on AHC sensor, IL-11 3.91-125 nM
Method: as §1

Kd [nM]	koff [s⁻¹]	kon [M⁻¹ s⁻¹]	Binder
0.242	0.00013	535000	B7
1.17	0.000584	501000	B13
0.262	0.000152	580000	B8
2.84	0.000609	214000	B9

Molecular target: T1, IL-11
Experiment: flow, IL-11 + antibody on IL-11R cells; lower = more blocking

FITC Mean [mean fluorescence]	Binder
3640	B1
10900	B2
9070	B3
3150	B4
13600	B5
15300	B6

Molecular target: T2, recombinant human protein antigen …
Experiment: flow cytometry competition: IL-11-His plus antibody on membrane-IL-11R CHO cells
Method: The inventors constructed a cell line (membrane-IL-11R CHO) that stably expressing IL-11R. […] Then 1.5*10\hat{ }5 membrane-IL-11R CHO cells (100 μL/well) were added and incubated for 1 h at room temperature. […] Then, the plate was incubated at 4° C. for 1 h, centrifuged at 1500 rpm for 5 min, washed three times with PBS, and resuspended cells in 180 μl PBS, and detected by flow cytometry.

EC50 [µg/mL]	Binder
10.5	B9
11.6	B10
12.5	B11
7.54	B12

Molecular target: T3, IL-11 stably expressed on CHO cells …
Experiment: flow cytometry on membrane-IL-11 CHO cells, detection with goat-anti-Fc-FITC
Method: The cells were washed 3 times with PBS, and then the flow secondary antibody Goat-anti-Fc-FITC (Abcam, ab98529) was added and detected by flow cytometry. The results were plotted as S-curves in FIG. 11.

EC50 (read off the curve) [µg/mL]	Binder
~2	B7
~3	B13
~2	B8
~2	B9
